The source of these data is patent publication US12115224B2, “Polypeptide conjugates for intracellular delivery of stapled peptides” (Ohio State Innovation Foundation, priority 2017, dated 2024).

In data set [1] the target is T1, MDM2 (Homo sapiens, UniProt Q00987). Put plainly: Fluorescence anisotropy (FA)-based competition with FITC-labeled peptide 1 for binding to MDM2. As to conditions: unlabeled peptides 4 and 5. The source says: Expression and Purification of GST-MDM2.
On the technique in general: Fluorescence polarisation rises when a labelled molecule tumbles more slowly, as on binding a larger partner.

The subject of another data set is HeLa cells. Put plainly: Cytosolic entry efficiency of NF-labeled peptides by flow cytometry. The settings on record: NF-labeled peptide 5 μM, 2 h, 37° C., 10% FBS; relative to CPP9 (100%). The method, then: Flow Cytometry. HeLa cells were seeded in 12-well plates at 1.5×10^5 cells per well for 24 h. The next day, naphthofluorescein-labelled peptide (5 μM) was added to the cells in DMEM medium supplemented with 10% fetal bovine serum (FBS) and 1% penicillin/streptomycin and the cells were incubated at 37° C. for 2 h in the presence of 5% CO2. The medium containing the peptide was removed and the cells were washed with DPBS twice. […] Data were analyzed using the Flowjo software (Tree Star).
For orientation: Flow cytometry measures light scatter and fluorescence of single cells or particles in a stream.

The target in data set [2] is T1, MDM2. Put plainly: Direct binding of FITC-labeled peptides to MDM2 (KD). The settings on record: relative to the parent peptide.

Several values for one entry are separate records, joined by “and”; a condition that tells them apart may be missing. Equal values may be shown once. Numbered stars: 1 amine (or outer) side, 2 acyl side, 3 side chain; on linkers, the order of the positions; unused ones are H or OH. Bridge positions count the residues as written; N and C are the ends. Square brackets hold non-standard residues; d marks the D form. Peptide text beside a SMILES is read from it. I, II: the chains in the order shown. * marks the point of attachment. X1 = O=C1OC2(c3ccc(C(=O)*)cc31)c1ccc3cc(O)ccc3c1Oc1c2ccc2cc(O)ccc12; X3 = NC(=O)[C@H](CCCCNC(=O)CON=C(C[*:1])C[*:2])NC(=O)COCCOCCN[*:3]; 2Nal = N[C@@H](Cc1ccc2ccccc2c1)C(=O)O; mXylylene = c1cc(C[*:1])cc(C[*:2])c1; NF = 5(6)-carboxynaphthofluorescein; hCys = N[C@@H](CCS)C(=O)O; K(NF) = not defined here; AEEA = NCCOCCOCC(=O)O; βAla = NCCC(=O)O

`CC(=O)N[C@@H](CC(C)C)C(=O)N[C@H](C(=O)N[C@@H](Cc1ccccc1)C(=O)N[C@H]1CCSCC(=NOCC(=O)NCCCC[C@H](NC(=O)COCCOCCNC(=O)CC[C@@H]2NC(=O)[C@@H](CCCNC(=N)N)NC(=O)[C@H](CCCNC(=N)N)NC(=O)[C@@H](CCCNC(=N)N)NC(=O)[C@H](CCCNC(=N)N)NC(=O)[C@H](Cc3ccc4ccccc4c3)NC(=O)[C@@H](Cc3ccccc3)NC2=O)C(N)=O)CSCC[C@@H](C(=O)N[C@@H](CCC(N)=O)C(=O)N[C@@H](CC(C)C)C(=O)N[C@H](C(=O)N[C@@H](CO)C(=O)NCCOCCOCC(=O)N[C@@H](CCCCN)C(N)=O)[C@@H](C)O)NC(=O)[C@H](Cc2c[nH]c3ccccc23)NC(=O)[C@H](Cc2ccc(O)cc2)NC(=O)[C@H](Cc2c[nH]cn2)NC1=O)[C@@H](C)O` [Peptide 4] (I: Ac-LTF[hCys]HYW[hCys]QLTS[AEEA]K-NH2 / II: cyclo([2Nal]R[dR]R[dR]E[dF]); linker I:4-I:8-II:6 via X3) gave an IC50 at MDM2 [1] of 220 nM. That is a sub-micromolar value.

With “Ac-ETFCHYWCQLTS-miniPEG-K(NF)-NH2 (Ac-ETFCHYWCQLTS-{miniPEG-K(NF)-NH2}; linker 4-8 via xylene; reading uncertain; also: printed as Ac-ETFCHYWCQLTS-miniPEG-K(NF)-NH2) [Peptide 10]”, the “Cellular Uptake (MFI^NF, %)” value in the data set with HeLa cells was 2.8% and 2.8 ± 0.1%.

Consider “NF-βA-ENPECILDCHVQRVM-NH2 [16] ({NF-βAla}-ENPECILDCHVQRVM-NH2; bridge 5-9; not fully specified (bridges)) [Peptide 16]”, for which, in the data set with HeLa cells, the “Cellular Uptake (MFI^NF, %)” value was 2.5% and 2.5 ± 0.5%.

Regarding `CC(=O)N[C@@H](CC(C)C)C(=O)N[C@H](C(=O)N[C@@H](Cc1ccccc1)C(=O)N[C@H]1CCSCC(=NOCC(=O)NCCCC[C@H](NC(=O)COCCOCCNC(=O)CC[C@@H]2NC(=O)[C@@H](CCCNC(=N)N)NC(=O)[C@H](CCCNC(=N)N)NC(=O)[C@@H](CCCNC(=N)N)NC(=O)[C@H](CCCNC(=N)N)NC(=O)[C@H](Cc3ccc4ccccc4c3)NC(=O)[C@@H](Cc3ccccc3)NC2=O)C(N)=O)CSCC[C@@H](C(=O)N[C@@H](CCC(N)=O)C(=O)N[C@@H](CC(C)C)C(=O)N[C@H](C(=O)N[C@@H](CO)C(=O)NCCOCCOCC(=O)N[C@@H](CCCCN)C(N)=O)[C@@H](C)O)NC(=O)[C@H](Cc2c[nH]c3ccccc23)NC(=O)[C@H](Cc2ccc(O)cc2)NC(=O)[C@H](Cc2c[nH]cn2)NC1=O)[C@@H](C)O` [Peptide 5] (I: Ac-LTF[hCys]HYW[hCys]QLTS[AEEA]K-NH2 / II: cyclo([2Nal]R[dR]R[dR]E[dF]); linker I:4-I:8-II:6 via X3), the IC50 at MDM2 [1] was determined as 201 nM.

In the case of “NF-βA-RKFCRLFC-NH2 [14] ({NF-βAla}-RKFCRLFC-NH2; bridge 4-8; not fully specified (bridges)) [Peptide 14]”, in the data set with HeLa cells, the “Cellular Uptake (MFI^NF, %)” value is 47% and 47 ± 9%.

`CC(=O)N[C@@H](CC(C)C)C(=O)N[C@H](C(=O)N[C@@H](Cc1ccccc1)C(=O)N[C@H]1CSCc2cccc(c2)CSC[C@@H](C(=O)N[C@@H](CCC(N)=O)C(=O)N[C@@H](CC(C)C)C(=O)N[C@H](C(=O)N[C@@H](CO)C(=O)NCCOCCOCC(=O)N[C@@H](CCCCNC(=O)c2ccc3c(c2)C(=O)OC32c3ccc4cc(O)ccc4c3Oc3c2ccc2cc(O)ccc32)C(N)=O)[C@@H](C)O)NC(=O)[C@H](Cc2c[nH]c3ccccc23)NC(=O)[C@H](Cc2ccc(O)cc2)NC(=O)[C@H](Cc2c[nH]cn2)NC1=O)[C@@H](C)O` [Peptide 6] (Ac-LTFCHYWCQLTS[AEEA]K(X1)-NH2; linker 4-8 via mXylylene): at MDM2 [2], the “fold decrease of MDM2 binding affinity” value is ~2.5 fold.

As to “NF-βA-NPECILDCHVQRVM-NH2 [18] ({NF-βAla}-NPECILDCHVQRVM-NH2; bridge 4-8; not fully specified (bridges)) [Peptide 18]”, the “Cellular Uptake (MFI^NF, %)” value with HeLa cells was 8.9% and 8.9 ± 2.9%.

In general, IC50 refers to the concentration at which inhibition is half-maximal. Read a high IC50 as weaker potency.
